# Assay: yeast display, Sf9 membrane polyspecificity reagent, FACS + sequencing; frameworks hold sequencing errors
# How it was run: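 Nanobodies from a synthetic yeast display library (Saccharomyces cerevisiae BJ5465), induced 36–48 hours with galactose, were stained 1 hour at 4 °C with 10% biotinylated, detergent-solubilized Sf9 membrane reagent, enriched on streptavidin microbeads, then FACS-sorted. Anti-HA (expression) and streptavidin (reagent binding) fluorescence set low and high (top ~1%) gates. Polyreactivity labels come from the gate of origin. Genes were colony-PCR amplified, MiSeq 2 × 250 sequenced and filtered by CDR length.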
row,Sequence,polyreactivity (PSR sort gate)
1,QVQLVESGGGLVQAGGSLRLSCAASGSTFLYYAMGWYRQAPGKERELVAVISWSGVSTYYADSVKGRFTISRDNAKNTVYLQMNSLTPEDTAVYYCNTGNHYIRTYGYWGQGTQVTVSS,low polyreactivity
2,QVQLVESGGGILQAGGSLRLSCAASGSTFSYYAMGWYRQAPGKERELVAAISYSGGRTYYADSVKGRFTISRDNAKNTVYLQMNSLKPEDTAVYYCAASGVFDSTRGVYYWGQGTQVTVSS,high polyreactivity
3,QDQLVESGGGLVQAGGSLRLSCAASGRTFHRNAMGLYRQAPGKERELVAAITGTGGRTYYADSVKGRFTISRDNAKNTVYLQMNSLKPEDTEVYYCAARPWIKSGYWGQGTQVTVSW,high polyreactivity
4,QVQLVESGGGLVHAGGSLRLSCAASGGIYWYYAMGWYRQAPGKERELVAAISITDGSTYYADSVKGRFTISRDKAKNTVYLQMNSLKPEDTAVYYCAAEEEEYIYDYWGQGTQVTVSS,high polyreactivity
5,QVQHGESGGGIVQAVVSLRLSCSASGFTFYYYPMGWYRQAPGKERELVAAIDTGGSTNYADSVKGRFTMSRDNAKNTVYLQMNSLKPEDTAVYYCNALQPGLGSPLGEYDYWGQGTQVTVSS,low polyreactivity
6,QVQLVESGGGLVQAGGSLRLSCAASGRTFYSYAMGWYRQAPGKERELVAAITSDGGTYYADSVKGRFTISRDNAKNTVYLQMNSLKPEDTAVYYCNAVGGWVTHWLLREGDYWGQGTQVTVSS,low polyreactivity
7,QVQLVESGGGLVQAGGSLRLSCAASGITFTRYAMGWYRQAPGKEMEFVAAIRRSGGNTYYADSVKGRFTISRDNAKNTVYLQMNSLKPEDTAVYYCAASFRKTSPTRLVDYWGQGTQVTVSS,low polyreactivity
8,QVQLVESVGGLVQAGGSLRLSCAASGRIFPAYAMGWYRQAPGKERELVASIRRGGITYADSVKGRFTISRDNAKNTVYLQMKSLKPEDTAVYYCNADYRGWGYHMDYWGQGTQVTVSS,low polyreactivity
9,QVQLEESGGGLVQAGGSLRLSCAASGGTFGQYTMGWYRQAPGKERELVAAISTRGGSTNYADSVKGRFTISRDNAKNTVYLQMNSLKPEDTAVYYCAAKDKGRYYENVGRRGLDYWGQGTQVTVSS,high polyreactivity
10,QVQLVESGGGLVQAGGSLRLSCAASGSTFEPNGMGWYRQAPGKETELVAVITSGRTNYADSVKGSFTISRDNAKNTVYLQMNSLKPEDTAVYYCNAEGNGIYDYWGQGTQVTVSS,low polyreactivity
11,QVQLVESGGGLVQAGGSLRLSCAASGFIFGFYAMGWYRQAPGKERELVAAITSDGGTYYADSVKGRFTISRDNAKNTVYLQMNSLKPEDTAVYYCAARPPYTDSSPGERTYDYWGQGTQVTVSS,low polyreactivity
12,QVQLVESGGGLVQAGGSLRLSCAASGSILLTNAMGWYRQAPGKERELVAAITSSGGSTSYADSVKGRFTISRDNAKNTVYIQMNSLKPEDTAVYYCAAAQRYRSQQFDHWGQGTQVTVSS,low polyreactivity
13,QVQLVESGGGLVQAGGSLRLSCAASGRTFVGNVMGWYRQAPGKERELVAAINRDASTNYADSVKGRFTISRDNAKNTVYLQMNSLKPEDTAVYYCATRRGFFDIFYGGYDYWGQGTQVTVSS,low polyreactivity
14,QVQLVESGGGLVQAGGSLRLSCAASGSIFRKYTMGWYRQAPGKERELVAAINTNGGSTYYADSVKGRFTISRDNAKNTVYLQMNSLKPEDTAVYYCRAWAQNQYNYWGQGTQVTVSS,high polyreactivity
15,QVQLVESGGGLVQAGGSLRLSCAASGFTFFYYVMGWYRQAPGKERELVAAISSGGSTYYADSVKGRFTISRDNAKNTVYLQMNSLKPEDTAVYYCNAVYRSTWWGYDYWGQGTQVTVSS,high polyreactivity
16,QVQLVESGGGLVQAGGSLRLICAASGSTQSPYAMGWYRQAPGKERDFVAAISTSGVSTYYADSVKGRFTISRDNAKNTVDLQMNSLKPVDTAVYYCATRYYIYGSTLKLYDYWGQGTQVTVSS,high polyreactivity
17,QVQLVESGGGLVQAGGSLRLSCDASGSTFGYYTMVWYRPSPGKERELVAAISSSGGSTYYADSVKGRFTISRDNAKNTVYLQMYSLKPEDTAVYYCNAEYGFYRAGSRGEYWGQGTQVTVSS,low polyreactivity
18,QVQLVESGGGLVQAGGSLRLSCAASGTTFVHYAMGWYRQAPGKERELVAAISSSGDSTYYADSVKGRFTISRDKAKNTVYLQMNSLKPEDTAVYYCAVRSRTPRAYYYWGQGTQVTVSS,low polyreactivity
19,QVQLVESGGGLVQAGGSLRLSCAASGSTFYVYAMGWYRQAPGKEREFVAAISFSSGSTYYADSVKGRFTISRDYAKNTVYLQMNSLKPEDTAVYYCAARYRYPRSIGYGYGGAFDYWGQGTQVTVSS,high polyreactivity
20,QVQLVESGGGLVQAGGSLRLSCADSVSIVGYYTMGWYRQAPWKARELVSGITSTGNTNYADSVKGRFTISRDNAKNTVYLHMNSLKPEHTAVYYCAADSESTWDFGWELEVGYDYWGQGTQVNVSS,low polyreactivity

row,Sequence,polyreactivity (PSR sort gate)
1,QVQLVESGGGLGQAGGSLRLSCAASGRTFPIYVMGWYRQAPGKERELVASISASGVRTYFADSVKGRFTISRDNAKNTVYLQMNSLKPEDTAVYYCATQVRRWYSARSPNVRFDYWGQGTQVTVSS,high polyreactivity
2,QVQLVESGGGLVQAGGSLSLTCAASGSIFRYYAMGWYRQAPGKERELVADITSSGGSTYYADSVKGRFTISRDNAKNTDYLQMNSLKPEDTAVYYCAALYWFYVYPFTEYDYWGQGTQVTVSS,low polyreactivity
3,QVKLVESGGGLVQAGGSLRLSCAASGSIFRRYGMGWYRQAPGKERELVAVITRGGSTYYADSVKGRFTISRDNAKNTVYLQMNSLKPEDTAVYYCNRSAGKDGQVGGQYDYWGQGTQVTVSS,high polyreactivity
4,QVQLVESGGGLVQAGGSLRLSCAASGSIFYVYAMGWYRQAPGKERELVAAITSSGTTNYADSVKGRFTISRDNAKNTVYLQMNSLKPEDTAVYYCAADAYSGAYFTYLGEIYDYWGQGTQVTVSS,low polyreactivity
5,QVLLVESGRGIVQAGGSLRLSCAASGGTFQPYAMGWYRQDTGKERELVAANSLNTGSTYYADSVKGRFTISRDNAKNTVYLQMNSLKPEDTAVDYCAVKWFYGGYDYWGQGTQVTVSS,low polyreactivity
6,QVQLVESGGGLVQAGGSLRLSCAASGITFGRNTMGWYRQAPGKERELVAAIDSGGNTYADSVKGRFTISRDNAKNTVYLQMNSLKPEDTAVYYCNARSYYGYGRYDYWGQGTQVTVSS,low polyreactivity
7,QVQLVESGGGLVQAGGSLRLSCAASGRIFSIYAMGWYRQAPVKERELVAAISKRGGSTSYADSVKGRFTISRDNAKNTVYLQMNSLKPEDTAVYYCNARGWIPARGWDDYYWGQGTQVTVSS,high polyreactivity
8,QVQLVESGGGVVQAGGSLRLSCAASGFIIARNAMGWYRQAPGKERELVAAISASGGRTYYSDSEKGRFTISRDNAKNTVYLQMNSLKPEDTAVYYCAARRDGRSGSYNYWGQGTQVTVSS,high polyreactivity
9,QVQLVESVGGLLQAGGSLRLSCAASGRIFTGYAMGWYRQAPGKERELVAAISSRGGSTYYADSVKGRFTISRDNAKNTVYLQMNSLKPEDTAVYYCNAYQWRHRYTMYYWGQGTQVTVSS,high polyreactivity
10,QVQLVESGGGLVQAGGSLRLSCAASGSIFRIYAMGWYRQAPGKERELVAAITGRGGSTYYADSVKGRFTISRDNAKNTVYLQMNSLKPEDTAVYYCAAEERYAYRYDYWGQGTQVTVSS,high polyreactivity
11,QVQLVESGGGIVQAGGSLSLSCAASGFNFGIYAMGWYRQAPGKEREFVAAITGSAGSTYYADSVKGRFTISLDNAKNTVYLQMNSLKPEDTAVYYCAAVLRTHRYGGYNYWGQGTQVTVSS,low polyreactivity
12,QVQLQESGGGLVQAGGSLRLSCAASGSIFKGVDMGLYRQAPAKEREFVATIGEGGNTYYADSVKGRFTISRDNAKNTVYLQMNSLKPEDTAVYFYAVVLGTSYRYTYWGQGTQVTVSS,low polyreactivity
13,QVQLVESGGGLVQAGGSLRLSCAASGSIFDVYAMGWYRQAPGKERELVAAITGGGSTYYADSVKGRFTISRDNAKNSVYLQMNSLKPEDTAVYYCNADRRRRSGGFAGWHFQRNEYWGHGTQVTVSS,low polyreactivity
14,QVQLVESGGGLVQAGGSLRLSCAASGRIIGYNAMGWYRQAPGKERELVASIRYSGGSTYYADSVKGRFTISRDNAMNTVYLQMNSLKPEDTAVYYCATRVTYRRRFDYWGQGTQVTVSS,high polyreactivity
15,QVQLVESGGGLVQAGGSLRLSCAASGRTFGPYTMGWYRQAPGKEREFVAAINSSGSRTYYADSVKGRFTISRDNAKNTVYLQMNSLKPEDTAVYYCAAEAKWYYSWSYPYEGDYWGQGSQVTVSS,low polyreactivity
16,QVQLVESGGCLVQAGGSHRLSCAASGLTFPKYAMGWYRQAPGKERELVARISYSGASTYYADSVKGRFTISRDNAKNTVYLHMNSLKPEDTAVYYCYARIYRVFYVHFAPYYYWGQGTQVTVSS,high polyreactivity
17,QVQRVESGGGLVQAGGSLRLSCAASGRTFYPYLMGWYRQSPGKERELVARIRWSGSSTYYADSVKGRFTISRDNAKNTVYFQMNSLKPEDTAVYYCNARPSWYVFGSSVHSGMGYWGQGTQVTVSS,high polyreactivity
18,QVQLVESGGGLVQAGGSLRLSCAASGSTFARYAMGWYRQAPGKDREFVAVSTSGGSTYYADSVNGRFTISRDNAKNPVYLQMNSLKPEDTAVYYCAAQSYFVFGSYRRYYGYDYWGQGTQVTVSW,high polyreactivity
19,QVQLVESGGGLVQAGGSLRLSCASSGRTFQYYAMGWYRQAPGKERELVAAISSRGGSTYYADSVKGRFTISRDNAKNTVYLQMNSLKPEDTAVYYCAAYVLPRQRVRSDYWGQGTQVTVSS,high polyreactivity
20,QVQLVESGGGLVQAGGSLRLSWAASGSTFVVYAMGWYRQAPGKERELVAAIDLSVGDTYYADSVKGRFTISRDNAKNTVFVQMNILKPEDTAVYYCAAEFYSYKYPDYDYWGQGTQVTVSS,low polyreactivity
